Measured values published in paper PMC2924460 (Arteriosclerosis, thrombosis, and vascular biology, 2010).

Target: the molecule itself
Assay: FRET or BRET

B1: thromboxane A2 receptor alpha (TPα), fused to renilla luciferase (TPαrLUC) or to yellow fluorescent protein (TPαYFP) (receptor, UniProt P21731 1-343, looked up)
chain: MWPNGSSLGPCFRPTNITLEERRLIASPWFAASFCVVGLASNLLALSVLAGARQGGSHTRSSFLTFLCGLVLTDFLGLLVTGTIVVSQHAALFEWHAVDPGCRLCRFMGVVMIFFGLSPLLLGAAMASERYLGITRPFSRPAVASQRRAWATVGLVWAAALALGLLPLLGVGRYTVQYPGSWCFLTLGAESGDVAFGLLFSMLGGLSVGLSFLLNTVSVATLCHVYHGQEAAQQRPRDSEVEMMAQLLGIMVVASVCWLPLLVFIAQTVLRNPPAMSPAGQLSRTTEKELLIYLRVATWNQILDPWVYILFRRAVLRRLQPRLSTRPRSLSLQPQLTQRSGLQ
Work on B1 yielded a BRET50 of 1.24 YFP fold over basal.
